Measured values: US20210267930A1, “MODIFIED ANTIBODY-ALBUMIN NANOPARTICLE COMPLEXES FOR CANCER TREATMENT” (Mayo Foundation for Medical Education and Research, priority 2016, published 2021)
One block for each molecule: values may come before it.

What was measured:
[1] = target: T1, CD20 (Homo sapiens, UniProt P11836); assay: Blocking of PE-mouse anti-human CD20 binding to CD20+ Daudi cells (flow cytometry); format: cell-based; conditions: Daudi cells pre-incubated with test article
T1 construct: host or cells: Daudi
T1 sequence (P11836 1-297): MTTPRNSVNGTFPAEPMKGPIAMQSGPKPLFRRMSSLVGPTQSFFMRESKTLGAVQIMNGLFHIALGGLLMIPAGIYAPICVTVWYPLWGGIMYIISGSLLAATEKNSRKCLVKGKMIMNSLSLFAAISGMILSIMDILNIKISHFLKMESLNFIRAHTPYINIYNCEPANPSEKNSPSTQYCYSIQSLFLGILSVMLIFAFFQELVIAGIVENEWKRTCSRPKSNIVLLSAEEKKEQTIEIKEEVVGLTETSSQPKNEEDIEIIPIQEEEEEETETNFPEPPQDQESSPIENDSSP
Procedure: After incubation, the cells were washed and stained with PE-mouse anti-human CD20 and enumerated by flow cytometry.

[2] = tested on: CD20+ Daudi cells; assay: In vitro toxicity assay, EdU proliferation of Daudi cells; format: cell-based, human; conditions: rituximab 0-200 μg/mL overnight
Procedure: The level of proliferation was determined by staining cells with FITC labeled anti-EdU. The proliferation index was calculated by normalization to the untreated positive control.
Cell proliferation was measured with EdU, a thymidine analog, that was detected with a FITC conjugated anti-EdU and enumerated by flow cytometry.
The human B-cell lymphoma line, Daudi, (ATCC Manassa, Va.) were cultured in RPMI with 1% penicillin, streptomycin and glutamine (PSG) and 10% FBS. Cells were harvested and plated at 0.2×10^6 cells per well in 24 well plates. […] To measure proliferation, the Click-iT EdU (Molecular Probes, Eugene, Oreg.) kit was utilized. […] The cells were permeabilized with 1% saponin and intercalated EdU was labeled with a FITC-conjugated antibody. The proliferation index was determined by dividing the FITC positive cells from each treatment by the maximum proliferation of untreated EdU labeled cells.

[3] = tested on: Daudi human lymphoma cells; assay: Daudi human lymphoma xenograft tumor efficacy; format: in vivo, athymic nude mice; conditions: intravenous
Procedure: To test tumor efficacy, 5×10^6 Daudi human lymphoma cells were implanted into the right flank of athymic nude mice (Harlan Sprague Dawley, Indianapolis, Ind.). […] Tumor size was monitored 2-3 times/week and tumor volume was calculated with the following equation: (length*width^2)/2. Mice were sacrificed when the tumor size equaled 10% of the mouse body weight, or about 2500 mm^3. The day 10 percent change from baseline was calculated as follows: [(tumor size on treatment day-tumor size on day 10)/tumor size on treatment day]*100. Kaplan Meier curves were generated and median survival was calculated using GraphPad Prism software (GraphPad Software, Inc, La Jolla, Calif.).

[4] = target: T2, ABRAXANE® (ABX) (Homo sapiens, UniProt P02768); assay: Binding of antibody to ABX, dissociation constant
T2 construct: purchased Celgene, Summit, N.J

[5] = target: CD20 (membrane bound, on Daudi cells) (human) (UniProt P11836); assay: flow cytometry, Daudi cells stained with Alexa-fluor 488 AR160 alone (middle panel, upper right quadrant)
[6] = target: CD20 (membrane bound, on Daudi cells) (human) (UniProt P11836); assay: flow cytometry, Daudi cells stained with Alexa-fluor 488 AR160 and PE anti-human CD19 (right panel, upper left quadrant)
[7] = target: CD20 (membrane bound, on Daudi cells) (human) (UniProt P11836); assay: flow cytometry on Daudi cells, ABX labelled with Alexa fluor 488
[8] = target: CD20 (membrane bound, on Daudi cells) (human) (UniProt P11836); assay: flow cytometry, Daudi cells stained with Alexa-fluor 488 AR160 and PE anti-human CD19 (right panel, upper right quadrant)
[9] = target: CD20 (membrane bound, on Daudi cells) (human) (UniProt P11836); assay: blocking assay by flow cytometry: Daudi cells pre-treated with AR160, washed, stained with PE-mouse anti-human CD20 (the blocked antibody)
[10] = target: CD20 (membrane bound, on Daudi cells) (human) (UniProt P11836); assay: blocking assay by flow cytometry: Daudi cells pre-treated with lab-made AR160, then stained with labelled anti-human CD20 (the blocked antibody)
[11] = target: CD20 (membrane bound, on Daudi cells) (human) (UniProt P11836); assay: blocking assay by flow cytometry: Daudi cells pre-treated with pharmacy-made AR160 batch 1, then stained with labelled anti-human CD20 (the blocked antibody)
[12] = target: HSA peptide 40 (Homo sapiens, UniProt P02768); assay: Biacore surface plasmon resonance, antibody binding to HSA peptide 40
Procedure: (§1) An albumin peptide library was constructed with 18 amino acid peptides, each containing a 6 amino acid overlap, and each albumin peptide was run against rituximab fixed on a CMS chip. Peptides were suspended to 5-10 mg/mL in HBS-EP plus running buffer. Water insoluble peptides were dissolved in 10% DMSO (Sigma-Aldrich, St. Louis, Mo.). Rituximab was immobilized onto Biacore CMS (GE Healthcare, Chicago, Ill.) chips via amine coupling. Biacore X-100 (GE Healthcare, Chicago, Ill.) was used to screen the albumin peptide libraries over immobilized rituximab. Peptides were screened from 1-50 μg/mL with an exposure time of 120 seconds. Biacore X100 software was used to determine binding kinetics.
(§2) The sequence of the variable region of the heavy chain where the binding site is located is provided in FIG. 13F for both bevacizumab (SEQ ID NO.: 1) and rituximab (SEQ ID NO.: 2). The 19-AA region of interest is underlined for bevacizumab (SEQ ID NO.: 8—[…]) and rituximab (SEQ ID NO.: 10—[…]), and share about 80% identity. FIG. 13G provides the sequences from each antibody that bind HSA.

[13] = target: T3, HSA peptide 4 (Homo sapiens, UniProt P02768); assay: Biacore surface plasmon resonance, antibody binding to HSA peptide 4
T3 construct: An albumin peptide library was constructed with 18 amino acid peptides
Procedure: as §1, §2

[14] = target: CD20 (membrane bound, on Daudi cells) (human) (UniProt P11836); assay: flow cytometry of Daudi cells, isotype control (negative control)
[15] = target: CD20 (membrane bound, on Daudi cells) (human) (UniProt P11836); assay: flow cytometry on Daudi cells (negative control)
[16] = target: full HSA protein (Homo sapiens, UniProt P02768); assay: Biacore surface plasmon resonance, antibody peptide binding to HSA
From the text: FIG. 13B represents binding of bevacizumab variable peptide 1 (SEQ ID NO.: 7) to HSA.
as §2

[17] = tested on: antibody complexation with ABX (bevacizumab); assay: Peptide competition assay on nanoparticle formation with bevacizumab; conditions: 10-fold molar excess of peptide
Procedure: Peptides were added at a 10-fold molar excess compared to antibody. Diameter was measured using a Malvern Nanosizer at a 1:200 dilution.
A similar experiment was performed using bevacizumab (FIG. 14B).

[18] = tested on: rituximab, trastuzumab, bevacizumab, and muromonab; assay: Biacore surface plasmon resonance, albumin peptide library against antibodies; format: binding; conditions: peptides at 50-1.25 μg/mL in HBS running buffer
Procedure: as §1
Peptides were run at 50, 25, 10, 5, 2.5, 1.25 μg/mL in HBS running buffer. Dissociation constants were determined by Biacore Evaluation Software. […] Diana, F. J., Veronich, K. & Kapoor, A. L. Binding of nonsteroidal anti-inflammatory agents and their effect on binding of racemic warfarin and its enantiomers to human serum albumin. J Pharm Sci 78, 195-199 (1989); Sudlow, G., Birkett, D. J. & Wade, D. N. The characterization of two specific drug binding sites on human serum albumin. Mol Pharmacol 11, 824-832 (1975).

[19] = target: CD20 (membrane bound, on Daudi cells) (human) (UniProt P11836); assay: blocking assay by flow cytometry: Daudi cells pre-treated with ABX, then stained with labelled anti-human CD20
[20] = target: CD20 (membrane bound, on Daudi cells) (human) (UniProt P11836); assay: blocking assay by flow cytometry: Daudi cells pre-treated with ABX, washed, stained with PE-mouse anti-human CD20
[21] = target: T4, human serum albumin (HSA) (human, UniProt P02768 25-609); assay: SPR (Biacore) of antibody variable-region peptides with full HSA
T4 construct: also called full HSA protein

Molecule: rituximab
- inhibition of subsequent binding of anti-human CD20 antibody [1]: prohibit subsequent binding of the anti-human CD20 antibody
- toxicity to Daudi cells [2]: not toxic
- median survival ([3]; RIT 12 mg/kg): 8 days
- mice having responses by day 10 ([3]; RIT 12 mg/kg): 0%
- percentage of mice alive at day 10 ([3]; RIT 12 mg/kg): 12%
- median survival ([3]; RIT 18 mg/kg): 10.5 days
- mice having responses by day 10 ([3]; RIT 18 mg/kg): 0%
- percentage of mice alive at day 10 ([3]; RIT 18 mg/kg): 38%
- binding affinity to ABX [4]: bind with a high affinity
- dissociation constant for ABX [4]: in the picomolar range

- % of cells in the AR160+ CD19+ quadrant [5]: 15.8%
- % of cells in the AR160+ CD19- quadrant [6]: 3.95%
- % positive cells [7]: 75%
- % of cells in the AR160+ CD19+ quadrant [8]: 73.8%
- % cells in the CD20+ gate after pre-treatment [9]: 6.6%
- % cells in the CD20+ gate after pre-treatment [10]: 6.6%
- % cells in the CD20+ gate after pre-treatment [11]: 8.2%
Molecule: AR160 (rituximab-albumin-paclitaxel nanoparticle complex) (from UniProt P02768 25-609)

- binding to HSA peptide 40 [12]: bound
- binding to HSA peptide 4 [13]: bound
Molecule: muromonab

- % cells in the CD20+ gate [14]: 6.2%
- % positive cells [15]: 6.2%
Molecule: isotype control antibody

- binding to the full HSA protein [16]: did not bind
Molecule: muromonab peptide: peptide from muromonab corresponding to the albumin-binding region; probably SEQ ID NO.: 12 (DDHYCLDYWGQGTTLTVSSA)

- binding to the antibodies [18]: found to bind the antibodies
Molecule: HSA peptide 40: HSA amino acids 455-472, SEQ ID NO.: 5; maps to the Sudlow II site
- effect on particle size increase indicative of antibody complexation with ABX [17]: prevent the 30 nm increase in particle size

- binding affinity to ABX [4]: bind with a high affinity
Molecule: bevacizumab

Molecule: Bev Peptide 1: bevacizumab peptide, amino acids 111-125, SEQ ID NO.: 7 (DTAVYYCAKYPHYYGSSHWYF)
- effect on particle size increase indicative of antibody complexation with ABX [17]: prevent the 30 nm increase in particle size

- % cells in the CD20+ gate after pre-treatment [19]: 82.9%
- % cells in the CD20+ gate after pre-treatment [20]: 82.9%
Molecule: ABRAXANE® (albumin-bound paclitaxel nanoparticles) (from UniProt P02768 25-609)

- binding result [21]: no binding
Molecule: DDHYCLDYWGQGTTLTVSSA [muromonab peptide]
